Assay results published in the supplement of paper PMC11246515.
± gives the standard deviation of the averaged measurements.

Experiment: total protein half-life in vivo (active degradation + dilution); higher = more stable protein
[1] = E. coli NCM3722 delta-clpP delta-lon delta-hslV, growth: N-lim chemostat, doubling time 6 h
[2] = wild type E. coli NCM3722, growth: C-lim chemostat, doubling time 3 h
[3] = wild type E. coli NCM3722, growth: C-lim chemostat, doubling time 6 h
[4] = E. coli NCM3722 delta-clpP, growth: N-lim chemostat, doubling time 6 h
[5] = E. coli NCM3722 delta-hslV, growth: N-lim chemostat, doubling time 6 h
[6] = E. coli NCM3722 delta-lon, growth: N-lim chemostat, doubling time 6 h
[7] = E. coli NCM3722 delta-smpB, growth: N-lim chemostat, doubling time 6 h
[8] = wild type E. coli NCM3722, growth: C-lim chemostat, doubling time 12 h
[9] = wild type E. coli NCM3722, growth: N-lim chemostat, doubling time 6 h
[10] = wild type E. coli NCM3722, growth: N-lim chemostat, doubling time 12 h
[11] = wild type E. coli NCM3722, growth: P-lim chemostat, doubling time 6 h
[12] = wild type E. coli NCM3722, growth: P-lim chemostat, doubling time 12 h

Sequence | total protein half-life in vivo [1] | total protein half-life in vivo [2] | total protein half-life in vivo [3] | total protein half-life in vivo [4] | total protein half-life in vivo [5] | total protein half-life in vivo [6] | total protein half-life in vivo [7] | total protein half-life in vivo [8] | total protein half-life in vivo [9] | total protein half-life in vivo [10] | total protein half-life in vivo [11] | total protein half-life in vivo [12]
MKKAKILSGVLLLCFSSPLISQAATLDVRGGYRSGSHAYETRLKVSEGWQNGWWASMESNTWNTIHDNKKENAALNDVQVEVNYAIKLDDQWTVRPGMLTHFSSNGTRYGPYVKLSWDATKDLNFGIRYRYDWKAYRQQDLSGDMSRDNVHRWDGYVTYHINSDFTFAWQTTLYSKQNDYRYANHKKWATENAFVLQYHMTPDITPYIEYDYLDRQGVYNGRDNLSENSYRIGVSFKL | 4.55 h | 3.093 ± 0.0091 h | 6.86 ± 1.1 h | – | – | – | – | – | – | – | – | –
MKKGFMLFTLLAAFSGFAQADDAAIQQTLAKMGIKSSDIQPAPVAGMKTVLTNSGVLYITDDGKHIIQGPMYDVSGTAPVNVTNKMLLKQLNALEKEMIVYKAPQEKHVITVFTDITCGYCHKLHEQMADYNALGITVRYLAFPRQGLDSDAEKEMKAIWCAKDKNKAFDDVMAGKSVAPASCDVDIADHYALGVQLGVSGTPAVVLSNGTLVPGYQPPKEMKEFLDEHQKMTSGK [P0AEG6] | 5.41 ± 0.26 h | 3.31 ± 0.52 h | 5.7 ± 0.21 h | 5.77 ± 0.5 h | 6.69 ± 0.64 h | 6.3 ± 0.28 h | 6.38 ± 0.49 h | 10.8 ± 1.6 h | 5.8 ± 0.27 h | 13.1 ± 2 h | 5.93 ± 1.2 h | 13.2 ± 0.74 h
MKKIACLSALAAVLAFTAGTSVAATSTVTGGYAQSDAQGQMNKMGGFNLKYRYEEDNSPLGVIGSFTYTEKSRTASSGDYNKNQYYGITAGPAYRINDWASIYGVVGVGYGKFQTTEYPTYKHDTSDYGFSYGAGLQFNPMENVALDFSYEQSRIRSVDVGTWIAGVGYRF [P0A917] | 7.26 ± 0.62 h | 3.09 ± 0.13 h | 6.04 ± 0.27 h | 6.37 ± 0.47 h | 6.51 ± 0.36 h | 6.76 ± 0.59 h | 5.81 ± 0.095 h | 14.4 ± 0.89 h | 6.09 ± 0.073 h | 12.9 ± 1.1 h | 6.15 ± 0.19 h | 12.9 ± 0.62 h
MKKIAIVGAGPTGIYTLFSLLQQQTPLSISIFEQADEAGVGMPYSDEENSKMMLANIASIEIPPIYCTYLEWLQKQEDSHLQRYGVKKETLHDRQFLPRILLGEYFRDQFLRLVDQARQQKFAVAVYESCQVTDLQITNAGVMLATNQDLPSETFDLAVIATGHVWPDEEEATRTYFPSPWSGLMEAKVDACNVGIMGTSLSGLDAAMAVAIQHGSFIEDDKQHVVFHRDNASEKLNITLLSRTGILPEADFYCPIPYEPLHIVTDQALNAEIQKGEEGLLDRVFRLIVEEIKFADPDWSQRIALESLNVDSFAQAWFAERKQRDPFDWAEKNLQEVERNKREKHTVPWRYVILRLHEAVQEIVPHLNEHDHKRFSKGLARVFIDNYAAIPSESIRRLLALREAGIIHILALGEDYKMEINESRTVLKTEDNSYSFDVFIDARGQRPLKVKDIPFPGLREQLQKTGDEIPDVGEDYTLQQPEDIRGRVAFGALPWLMHDQPFVQGLTACAEIGEAMARAVVKPASRARRRLSFD | 4.97 ± 0.15 h | 3.05 ± 0.16 h | 5.2 ± 0.33 h | 4.38 ± 0.22 h | 4.07 ± 0.29 h | 4.14 ± 0.29 h | 3.75 ± 0.084 h | 8.04 ± 1.7 h | 3.89 ± 0.12 h | 6.3 ± 0.43 h | 5.59 ± 0.087 h | 9.95 ± 0.48 h
MKKIALAGLAGMLLVSASVNAMSISGQAGKEYTNIGVGFGTETTGLALSGNWTHNDDDGDVAGVGLGLNLPLGPLMATVGGKGVYTNPNYGDEGYAAAVGGGLQWKIGNSFRLFGEYYYSPDSLSSGIQSYEEANAGARYTIMRPVSIEAGYRYLNLSGKDGNRDNAVADGPYVGVNASF | – | 2.53 ± 0.17 h | – | > 8 h | > 8 h | 6.46 ± 1.8 h | 5.13 h | – | 4.53 ± 0.26 h | – | 4.72 h | 13 h
MKKIGVAGLQREQIKKTIEATAPGCFEVFIHNDMEAAMKVKSGQLDYYIGACNTGAGAALSIAIAVIGYNKSCTIAKPGIKAKDEHIAKMIAEGKVAFGLSVEHVEHAIPMLINHLK | – | 3.02 h | – | – | 4.29 h | – | – | – | – | – | – | –
MKKIGVILSGCGVYDGSEIHEAVLTLLAISRSGAQAVCFAPDKQQVDVINHLTGEAMTETRNVLIEAARITRGEIRPLAQADAAELDALIVPGGFGAAKNLSNFASLGSECTVDRELKALAQAMHQAGKPLGFMCIAPAMLPKIFDFPLRLTIGTDIDTAEVLEEMGAEHVPCPVDDIVVDEDNKIVTTPAYMLAQNIAEAASGIDKLVSRVLVLAE [P0ABU5] | 5.23 ± 0.27 h | – | 6.9 ± 1.3 h | 4.46 ± 0.24 h | 4.76 ± 0.49 h | 5.05 ± 0.41 h | 4.5 ± 0.09 h | 10.8 ± 0.44 h | 4.79 ± 0.54 h | 7.44 ± 0.33 h | 5.67 ± 0.31 h | 13.4 ± 0.84 h
MKKIIETQRAPGAIGPYVQGVDLGSMVFTSGQIPVCPQTGEIPADVQDQARLSLENVKAIVVAAGLSVGDIIKMTVFITDLNDFATINEVYKQFFDEHQATYPTRSCVQVARLPKDVKLEIEAIAVRSA [P0AGL2] | – | 2.79 h | 5.42 h | – | 4.94 ± 0.13 h | 5.08 ± 0.99 h | 3.9 h | 9.66 ± 1.9 h | – | 7.12 h | 6.2 h | 10.6 ± 0.78 h
MKKILLMLSLLFFTTAGFSEVSDTLVTGGYDKQAMSDAIKHARKETDKFIEVMNKKDADTFAVKAPITDHGRTEHFWLTDVTYSNGMFIGVISNDPGIVTNVEYGQEWKIKKEDISDWMYTRGDKIYGGYTIDPLLVTYPKEEADELRAKLVR | 3.76 h | 2.2 h | 5.15 ± 0.19 h | 4.8 h | 4.78 ± 1.5 h | 5.28 h | 4.01 ± 0.41 h | 6.65 h | 4.65 h | 7.64 h | 3.47 ± 0.23 h | 5.28 ± 1.1 h
MKKIWLALAGLVLAFSASAAQYEDGKQYTTLEKPVAGAPQVLEFFSFFCPHCYQFEEVLHISDNVKKKLPEGVKMTKYHVNFMGGDLGKDLTQAWAVAMALGVEDKVTVPLFEGVQKTQTIRSASDIRDVFINAGIKGEEYDAAWNSFVVKSLVAQQEKAAADVQLRGVPAMFVNGKYQLNPQGMDTSNMDVFVQQYADTVKYLSEKK [P0AEG4] | 5.32 ± 0.12 h | 3.03 ± 0.28 h | 5.32 ± 0.28 h | 5.05 ± 0.36 h | 6.08 ± 0.13 h | 6.83 ± 0.3 h | 6.24 ± 0.57 h | 8.77 ± 2.3 h | 5.73 ± 0.14 h | 11.62 ± 0.096 h | 5.665 ± 0.0088 h | 11.5 ± 1 h
